Measurements published in patent US20120237966A1.

Molecular target: GI (K607T)-mCherry-CAAX (Arabidopsis thaliana) (UniProt Q9SQI2)
Test: cell-based or functional assay

Chain of UniProt Q9SQI2 (Q9SQI2 other isoform, or with tags, fused parts or gaps K607T K607T): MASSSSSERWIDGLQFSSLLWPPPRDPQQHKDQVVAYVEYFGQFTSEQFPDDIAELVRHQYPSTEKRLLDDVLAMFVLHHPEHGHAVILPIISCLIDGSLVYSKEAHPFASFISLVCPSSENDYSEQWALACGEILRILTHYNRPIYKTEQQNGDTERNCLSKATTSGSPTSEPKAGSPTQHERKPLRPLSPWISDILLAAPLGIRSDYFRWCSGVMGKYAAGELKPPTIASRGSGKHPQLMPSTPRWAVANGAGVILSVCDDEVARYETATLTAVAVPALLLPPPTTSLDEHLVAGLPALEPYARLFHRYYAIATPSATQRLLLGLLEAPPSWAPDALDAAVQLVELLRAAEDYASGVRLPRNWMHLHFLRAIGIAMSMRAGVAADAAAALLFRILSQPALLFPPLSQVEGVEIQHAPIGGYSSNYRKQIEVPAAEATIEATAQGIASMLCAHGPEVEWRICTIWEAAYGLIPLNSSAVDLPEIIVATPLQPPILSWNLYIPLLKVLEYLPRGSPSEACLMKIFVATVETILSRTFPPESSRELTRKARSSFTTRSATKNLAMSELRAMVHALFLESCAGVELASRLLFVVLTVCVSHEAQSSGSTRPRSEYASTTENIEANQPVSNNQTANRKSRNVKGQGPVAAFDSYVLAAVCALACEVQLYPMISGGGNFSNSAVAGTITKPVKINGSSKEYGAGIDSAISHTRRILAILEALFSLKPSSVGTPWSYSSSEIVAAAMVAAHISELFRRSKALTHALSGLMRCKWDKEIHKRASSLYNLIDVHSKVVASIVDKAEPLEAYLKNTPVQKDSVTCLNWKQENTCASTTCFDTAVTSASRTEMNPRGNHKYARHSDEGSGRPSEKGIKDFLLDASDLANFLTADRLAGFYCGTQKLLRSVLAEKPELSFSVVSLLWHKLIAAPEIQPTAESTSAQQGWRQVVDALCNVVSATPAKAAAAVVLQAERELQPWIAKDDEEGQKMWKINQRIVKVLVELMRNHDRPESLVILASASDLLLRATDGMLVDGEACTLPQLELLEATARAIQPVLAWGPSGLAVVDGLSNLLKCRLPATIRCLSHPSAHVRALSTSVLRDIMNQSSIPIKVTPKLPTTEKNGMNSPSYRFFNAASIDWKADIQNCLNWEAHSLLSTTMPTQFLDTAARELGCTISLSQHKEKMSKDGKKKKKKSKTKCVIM

Substance | percentage of cells with lamellipodia, increase upon illumination
NES-FKF1(K15T)-YFP-linker-Rac1ca (FKF1-Rac) G128D (from UniProt P63000 1-188) | 87%
NES-FKF1(K15T)-YFP-linker-Rac1ca (FKF1-Rac) WT (from UniProt P63000 1-188) | 46%
